{
  "source": "patent US20200340042",
  "about": "“IN VITRO SELECTION FOR NUCLEIC ACID […]” (McMaster University, published 2020)",
  "binders": {"B1": {"name": "Capt-2 (ssDNA)", "DNA": "CAGGTCCATCGAGTGGTAGGAGGAGGTATTTAGTGCCAAGCCATCTCAAACGACGTCTGAGTCGCACTGCTCCTGAACGTAC"}, "B2": {"name": "Lapt-2 (Anti-G1) (ssDNA)", "DNA": "B1 DNA"}, "B3": {"name": "Anti-G1T1 (ssDNA)", "DNA": "TAGGAGGAGGTATTTAGTGCCAAGCCATCTCAAACGACGTCTGAGTCGCACTGCTCCTG"}, "B4": {"name": "Capt-4 (ssDNA)", "DNA": "CAGGTCCATCGAGTGGTAGGACGACCCGAATAGTGGCATATCAATGAGTGCTTGTCATCTTTCGCACTGCTCCTGAACGTAC"}, "B5": {"name": "Lapt-4 (ssDNA)", "DNA": "B4 DNA"}, "B6": {"name": "Scrambled Capt-4 (ssDNA)", "DNA": "GAAGGATTCGGACTAGGATCCGGTCCAACTACCGGTGCCCTAATGGCATCAAAACTGCGTACCGAGCGTGTTTATCTTTCTG"}, "B7": {"name": "Scrambled Capt-2 (ssDNA)", "DNA": "CGGGAGTACGCATGTATGAGACACCCACGCTATGTCCCTACTATGAGGTGGAGACTTGCTACGTGCATCGCAGATCGGTCAA"}, "B8": {"name": "Anti-G3 (ssDNA)", "DNA": "CAGGTCCATCGAGTGGTAGGATGCAGCGGACAGTGTGGGACCATCGCTGCGGATGTATGAATCGCACTGCTCCTGAACGTAC"}, "B9": {"name": "Anti-G7 (ssDNA)", "DNA": "CAGGTCCATCGAGTGGTAGGACCCAACCCACGATGCGCAAGAGGAATGCAGCCTACCAGCATCGCACTGCTCCTGAACGTAC"}},
  "key": {"[1]": {"target": "T1, glutamate dehydrogenase (rGDH, recombinant) (Clostridium difficile, UniProt P27346 SEQ:1-421)", "T1 sequence": "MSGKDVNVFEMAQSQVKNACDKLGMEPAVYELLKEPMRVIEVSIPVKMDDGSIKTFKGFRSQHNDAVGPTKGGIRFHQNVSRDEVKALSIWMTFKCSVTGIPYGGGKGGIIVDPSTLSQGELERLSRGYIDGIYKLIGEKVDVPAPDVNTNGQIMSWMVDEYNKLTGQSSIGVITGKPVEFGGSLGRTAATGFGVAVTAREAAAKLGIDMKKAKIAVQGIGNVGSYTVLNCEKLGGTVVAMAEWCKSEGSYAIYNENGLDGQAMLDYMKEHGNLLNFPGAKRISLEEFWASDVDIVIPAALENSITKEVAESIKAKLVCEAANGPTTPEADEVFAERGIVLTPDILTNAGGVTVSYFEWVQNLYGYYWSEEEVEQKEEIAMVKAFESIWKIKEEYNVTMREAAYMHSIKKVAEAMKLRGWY", "assay": "pulldown; […]; 50 mM HEPES, 150 mM NaCl, 10 mM MgCl2, 5 mM KCl, 0.02% Tween-20, pH 7.2, 25 C", "details": "tags: His-tag; expressed in E. coli; Pro-Lab Diagnostics; chain copies: 6; label: 32P"}, "[2]": {"target": "T1, glutamate dehydrogenase (rGDH, …)", "assay": "pulldown", "details": "tags: His-tag; expressed in E. coli; Pro-Lab Diagnostics; chain copies: 6; label: 32P; linear", "experimental": "100 μL of 1× binding buffer containing 100 nM γ-[³²P]-labeled captamer candidates was first denatured at 90° C. for 10 min, followed by incubation at RT for 20 min. The pull-down assays were conducted in a total volume of 300 μL of 1× binding buffer containing 50 μL of bead-bound rGDH (final concentration ˜50 nM) and 100 μL of 100 nM captamer candidates for 30 min with gentle rotation. In parallel, negative controls consisting of the captamers incubated with uncoated beads were included. Following three washing steps, proteins and bound aptamers were eluted with 30 μL of elution buffer (20 mM Tris-HCl, 500 mM imidazole, pH 7.5) by shaking at 90° C. for 10 min. The resultant mixtures were then analyzed by 10% dPAGE, and quantified by Image Quant software. […] Pull-down assays were conducted in a total volume of 300 μL of 1× binding buffer containing 10 μL of bead-bound rGDH (final concentration ˜9.2 nM) and 100 μL of aptamers with serial dilutions for 30 min with gentle rotation. Following washing steps, the bound DNA was then analyzed by 10% dPAGE. […]\nThe inventors measured the dissociation constant (Kd) for Capt-2 and Capt-4 using the same pull-down assay, along with their linear counterparts, Lapt-2 and Lapt-4 (FIG. 2b). […]"}, "[3]": {"target": "T1, glutamate dehydrogenase (rGDH, …)", "assay": "pulldown; competes with Anti-G1, Anti-G3, Anti-G7", "details": "tags: His-tag; expressed in E. coli; Pro-Lab Diagnostics; chain copies: 6; label: 32P; linear"}, "[4]": {"target": "T2, glutamate dehydrogenase (nGDH, native) (Clostridium difficile, UniProt P27346 SEQ:1-421)", "T2 sequence": "T1 sequence", "assay": "FP filter; paper filter binding; binding buffer with 10 mM MgCl2, 1% BSA", "details": "tags: Pro-Lab Diagnostics; chain copies: 6 stated; label: 32P"}, "[5]": {"target": "T1, glutamate dehydrogenase (rGDH, …)", "assay": "pulldown; 10 mM MgCl2, 150 mM NaCl, pH 7.2, 25 C; epitope distinct from aptamer 2", "details": "tags: His-tag; expressed in E. coli; Pro-Lab Diagnostics; chain copies: 6; label: 32P", "experimental": "(§1) Following three washing steps, proteins and bound aptamers were eluted with 30 μL of elution buffer (20 mM Tris-HCl, 500 mM imidazole, pH 7.5) by shaking at 90° C. for 10 min. The resultant mixtures were then analyzed by 10% dPAGE, and quantified by Image Quant software. […] Pull-down assays were conducted in a total volume of 300 μL of 1× binding buffer containing 10 μL of bead-bound rGDH (final concentration ˜9.2 nM) and 100 μL of aptamers with serial dilutions for 30 min with gentle rotation. Following washing steps, the bound DNA was then analyzed by 10% dPAGE. The apparent dissociation constants (Kd) of each aptamer candidate were obtained by fitting the fractional bound DNA to the total aptamer concentration using a one-site binding model.\n(§2) The inventors measured the dissociation constant (Kd) for Capt-2 and Capt-4 using the same pull-down assay, along with their linear counterparts, Lapt-2 and Lapt-4 (FIG. 2b). […] The structural prediction with the m-fold program (http: //unafold.rna.albany.edu/?q=mfold) also provides a good rationale for the functionality of aptamer 2 in both circular and linear configurations, as the random-sequence nucleotides are predicted to form the same structural elements in both forms (FIG. 9). […]"}, "[6]": {"target": "bovine serum albumin (BSA) (UniProt P02769 P02769:25-607)"}, "toxin B (TcdB)": {"target": "toxin B (TcdB) (Clostridium difficile, UniProt P18177 SEQ:2-2366)", "sequence (P18177 2-2366)": "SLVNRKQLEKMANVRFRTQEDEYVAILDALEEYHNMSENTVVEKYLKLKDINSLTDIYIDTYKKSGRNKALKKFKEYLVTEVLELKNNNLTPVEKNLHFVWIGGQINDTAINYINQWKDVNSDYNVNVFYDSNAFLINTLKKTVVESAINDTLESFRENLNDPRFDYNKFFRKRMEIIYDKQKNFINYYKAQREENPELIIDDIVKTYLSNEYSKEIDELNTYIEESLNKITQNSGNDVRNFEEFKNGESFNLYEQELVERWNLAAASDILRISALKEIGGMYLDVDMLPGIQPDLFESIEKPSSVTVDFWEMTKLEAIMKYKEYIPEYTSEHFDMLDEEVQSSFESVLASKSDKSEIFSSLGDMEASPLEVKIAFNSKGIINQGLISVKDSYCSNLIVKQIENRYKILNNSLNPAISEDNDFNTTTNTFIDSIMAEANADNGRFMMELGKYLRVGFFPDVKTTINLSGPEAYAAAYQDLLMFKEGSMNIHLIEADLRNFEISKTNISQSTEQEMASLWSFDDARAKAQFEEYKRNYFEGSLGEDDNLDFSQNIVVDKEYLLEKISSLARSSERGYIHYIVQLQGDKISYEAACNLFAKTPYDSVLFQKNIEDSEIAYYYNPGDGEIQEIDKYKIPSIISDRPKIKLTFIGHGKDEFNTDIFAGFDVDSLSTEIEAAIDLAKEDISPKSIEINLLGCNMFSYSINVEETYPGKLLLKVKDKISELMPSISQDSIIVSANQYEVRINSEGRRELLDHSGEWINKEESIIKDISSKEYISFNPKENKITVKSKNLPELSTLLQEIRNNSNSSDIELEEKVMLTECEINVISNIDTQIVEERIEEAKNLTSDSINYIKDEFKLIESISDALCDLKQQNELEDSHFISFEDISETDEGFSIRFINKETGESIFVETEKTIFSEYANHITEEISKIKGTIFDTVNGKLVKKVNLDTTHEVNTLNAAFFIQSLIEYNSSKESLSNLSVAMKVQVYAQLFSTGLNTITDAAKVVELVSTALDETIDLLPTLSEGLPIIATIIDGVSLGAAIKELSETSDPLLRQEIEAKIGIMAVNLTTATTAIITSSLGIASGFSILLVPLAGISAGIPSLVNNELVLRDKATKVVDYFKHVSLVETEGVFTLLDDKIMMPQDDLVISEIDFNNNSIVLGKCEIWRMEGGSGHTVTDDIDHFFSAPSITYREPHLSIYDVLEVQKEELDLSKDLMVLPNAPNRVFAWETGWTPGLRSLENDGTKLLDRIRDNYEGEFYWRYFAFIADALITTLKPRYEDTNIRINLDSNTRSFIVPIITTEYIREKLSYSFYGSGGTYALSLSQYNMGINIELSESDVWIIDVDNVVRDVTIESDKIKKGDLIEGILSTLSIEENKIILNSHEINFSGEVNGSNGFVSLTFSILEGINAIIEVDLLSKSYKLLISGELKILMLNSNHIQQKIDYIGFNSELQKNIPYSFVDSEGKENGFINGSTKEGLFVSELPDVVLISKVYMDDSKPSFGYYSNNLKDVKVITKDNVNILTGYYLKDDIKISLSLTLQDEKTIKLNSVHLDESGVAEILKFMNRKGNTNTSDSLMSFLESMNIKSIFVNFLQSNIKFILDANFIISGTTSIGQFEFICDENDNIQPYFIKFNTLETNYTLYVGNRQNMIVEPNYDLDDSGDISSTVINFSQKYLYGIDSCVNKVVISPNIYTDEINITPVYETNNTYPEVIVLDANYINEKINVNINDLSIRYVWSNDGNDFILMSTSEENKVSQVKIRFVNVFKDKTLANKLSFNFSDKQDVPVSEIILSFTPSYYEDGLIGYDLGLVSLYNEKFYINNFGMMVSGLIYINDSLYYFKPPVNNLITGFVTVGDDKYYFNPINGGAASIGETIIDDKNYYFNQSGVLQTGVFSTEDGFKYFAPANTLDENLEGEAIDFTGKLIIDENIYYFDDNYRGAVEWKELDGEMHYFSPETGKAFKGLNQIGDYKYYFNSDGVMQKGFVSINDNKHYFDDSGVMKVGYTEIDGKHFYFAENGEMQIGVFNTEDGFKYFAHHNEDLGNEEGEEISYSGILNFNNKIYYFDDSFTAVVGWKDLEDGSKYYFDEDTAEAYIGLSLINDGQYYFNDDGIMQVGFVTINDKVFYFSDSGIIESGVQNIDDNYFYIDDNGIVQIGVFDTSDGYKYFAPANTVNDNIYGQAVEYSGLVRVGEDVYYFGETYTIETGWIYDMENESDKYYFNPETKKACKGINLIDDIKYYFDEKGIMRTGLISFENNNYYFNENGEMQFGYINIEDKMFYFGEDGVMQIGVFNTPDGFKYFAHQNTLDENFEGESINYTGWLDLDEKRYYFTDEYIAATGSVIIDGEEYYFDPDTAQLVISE"}, "toxin A (TcdA)": {"target": "toxin A (TcdA) (Clostridium difficile, UniProt P16154 SEQ:1-2710)", "sequence (P16154 whole entry)": "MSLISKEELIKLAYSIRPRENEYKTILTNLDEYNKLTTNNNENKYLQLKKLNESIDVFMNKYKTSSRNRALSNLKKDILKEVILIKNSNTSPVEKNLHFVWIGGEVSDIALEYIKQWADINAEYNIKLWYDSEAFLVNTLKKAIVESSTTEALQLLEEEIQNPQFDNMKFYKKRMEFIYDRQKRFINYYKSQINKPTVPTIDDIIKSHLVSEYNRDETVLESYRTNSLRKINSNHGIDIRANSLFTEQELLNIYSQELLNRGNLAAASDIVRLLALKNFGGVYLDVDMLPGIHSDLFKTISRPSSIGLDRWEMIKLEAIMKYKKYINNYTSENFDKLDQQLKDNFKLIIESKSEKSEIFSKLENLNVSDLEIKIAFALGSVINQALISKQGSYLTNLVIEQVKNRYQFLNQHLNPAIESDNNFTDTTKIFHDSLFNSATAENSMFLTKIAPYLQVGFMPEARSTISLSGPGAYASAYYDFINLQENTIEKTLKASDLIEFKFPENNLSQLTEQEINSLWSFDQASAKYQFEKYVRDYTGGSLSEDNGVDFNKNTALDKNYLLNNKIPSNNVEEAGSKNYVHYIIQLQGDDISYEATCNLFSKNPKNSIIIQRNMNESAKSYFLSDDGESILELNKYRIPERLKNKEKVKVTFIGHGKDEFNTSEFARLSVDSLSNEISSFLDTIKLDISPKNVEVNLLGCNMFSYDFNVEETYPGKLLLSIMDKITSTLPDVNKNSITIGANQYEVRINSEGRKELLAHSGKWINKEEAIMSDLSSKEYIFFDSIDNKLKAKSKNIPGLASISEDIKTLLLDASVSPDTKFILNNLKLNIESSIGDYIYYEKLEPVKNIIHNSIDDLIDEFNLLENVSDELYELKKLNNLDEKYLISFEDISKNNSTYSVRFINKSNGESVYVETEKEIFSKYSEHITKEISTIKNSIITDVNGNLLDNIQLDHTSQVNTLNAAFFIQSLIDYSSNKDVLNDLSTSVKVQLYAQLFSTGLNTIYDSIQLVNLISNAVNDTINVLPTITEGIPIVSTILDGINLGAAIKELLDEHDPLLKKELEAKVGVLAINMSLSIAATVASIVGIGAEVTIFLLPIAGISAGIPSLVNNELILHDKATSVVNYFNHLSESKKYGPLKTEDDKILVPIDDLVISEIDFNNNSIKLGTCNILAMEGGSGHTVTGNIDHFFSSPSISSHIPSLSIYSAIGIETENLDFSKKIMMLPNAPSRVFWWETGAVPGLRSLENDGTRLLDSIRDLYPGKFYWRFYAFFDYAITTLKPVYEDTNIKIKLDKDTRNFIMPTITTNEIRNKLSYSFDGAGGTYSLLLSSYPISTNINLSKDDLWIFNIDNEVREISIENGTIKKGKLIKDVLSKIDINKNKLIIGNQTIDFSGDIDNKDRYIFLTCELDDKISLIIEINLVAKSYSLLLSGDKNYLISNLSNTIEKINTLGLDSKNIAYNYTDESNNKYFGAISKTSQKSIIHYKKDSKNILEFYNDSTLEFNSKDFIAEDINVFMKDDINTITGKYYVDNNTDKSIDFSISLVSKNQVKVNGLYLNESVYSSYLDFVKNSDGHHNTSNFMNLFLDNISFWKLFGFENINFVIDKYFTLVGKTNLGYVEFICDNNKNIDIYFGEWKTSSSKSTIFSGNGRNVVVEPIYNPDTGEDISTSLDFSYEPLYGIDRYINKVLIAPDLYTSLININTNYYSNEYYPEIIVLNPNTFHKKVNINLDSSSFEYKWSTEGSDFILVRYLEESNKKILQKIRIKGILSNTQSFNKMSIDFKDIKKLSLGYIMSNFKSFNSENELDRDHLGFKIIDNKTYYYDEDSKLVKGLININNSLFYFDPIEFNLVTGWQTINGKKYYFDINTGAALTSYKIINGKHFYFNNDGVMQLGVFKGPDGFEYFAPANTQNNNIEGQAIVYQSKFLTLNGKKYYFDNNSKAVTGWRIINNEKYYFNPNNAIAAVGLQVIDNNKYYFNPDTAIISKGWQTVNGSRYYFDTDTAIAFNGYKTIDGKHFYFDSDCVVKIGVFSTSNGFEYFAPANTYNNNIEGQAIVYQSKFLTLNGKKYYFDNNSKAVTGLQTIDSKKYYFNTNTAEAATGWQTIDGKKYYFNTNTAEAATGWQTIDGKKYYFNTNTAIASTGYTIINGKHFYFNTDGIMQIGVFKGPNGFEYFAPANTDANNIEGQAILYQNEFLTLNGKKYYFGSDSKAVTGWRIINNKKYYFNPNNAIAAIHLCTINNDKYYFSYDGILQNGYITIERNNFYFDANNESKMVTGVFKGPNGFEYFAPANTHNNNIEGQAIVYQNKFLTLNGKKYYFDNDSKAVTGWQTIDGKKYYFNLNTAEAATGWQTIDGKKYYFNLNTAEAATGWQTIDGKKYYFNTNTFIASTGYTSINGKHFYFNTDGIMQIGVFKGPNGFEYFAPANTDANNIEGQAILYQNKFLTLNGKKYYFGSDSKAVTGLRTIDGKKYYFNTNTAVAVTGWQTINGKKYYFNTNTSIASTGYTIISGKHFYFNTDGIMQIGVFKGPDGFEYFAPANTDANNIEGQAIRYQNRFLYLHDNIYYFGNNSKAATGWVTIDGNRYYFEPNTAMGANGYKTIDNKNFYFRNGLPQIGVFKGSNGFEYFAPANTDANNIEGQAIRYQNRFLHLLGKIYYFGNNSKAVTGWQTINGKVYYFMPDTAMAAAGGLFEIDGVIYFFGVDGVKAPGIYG"}, "[7]": {"target": "T1, glutamate dehydrogenase (rGDH, …)", "assay": "pulldown; 10 mM MgCl2, pH 7.2, 25 C; no detectable binding in dot blot (p157)", "details": "tags: His-tag; expressed in E. coli; Pro-Lab Diagnostics; chain copies: 6; label: 32P; linear", "experimental": "as §1, §2"}, "[8]": {"target": "T1, glutamate dehydrogenase (rGDH, …)", "assay": "pulldown; no affinity to rGDH", "details": "tags: His-tag; expressed in E. coli; Pro-Lab Diagnostics; chain copies: 6; label: 32P", "experimental": "as §1, with “The pull-down assays were conducted in a total volume of 300 μL of 1× binding buffer containing 50 μL of bead-bound rGDH (final concentration ˜50 nM) and 100 μL of 100 nM captamer candidates for 30 min with gentle rotation. In parallel, negative controls consisting of the captamers incubated with uncoated beads were included. Following three” for “Following three”\nHowever, Capt-4 was a new sequence that was not observed in the previous selection. […] In this assay, each captamer candidate was incubated with bare NiMBs or rGDH-coated NiMBs, followed by elution of the bound captamer and radioactivity analysis by dPAGE (FIG. 2a)."}, "[9]": {"target": "T1, glutamate dehydrogenase (rGDH, …)", "assay": "pulldown; competes with Anti-G1T1, same epitope", "details": "tags: His-tag; expressed in E. coli; Pro-Lab Diagnostics; chain copies: 6; label: 32P; linear"}},
  "data": [
    {"binder": "B1", "values": [
      {"measurement": "Kd", "setting": "[1]", "value": 4.4, "unit": "nM"}
    ]},
    {"binder": "B2", "values": [
      {"measurement": "Kd", "setting": "[2]", "value": 5.6, "unit": "nM"}
    ]},
    {"binder": "B3", "values": [
      {"measurement": "binding result", "setting": "[3]", "value": "binds"}
    ]},
    {"binder": "B4", "values": [
      {"measurement": "Kd", "setting": "[4]", "value": 2.8, "unit": "nM"},
      {"measurement": "Kd", "setting": "[5]", "value": 12.3, "unit": "nM"},
      {"measurement": "binding result", "setting": "[6]", "value": "no binding"},
      {"measurement": "binding result", "setting": "toxin B (TcdB)", "value": "no binding"},
      {"measurement": "binding result", "setting": "toxin A (TcdA)", "value": "no binding"}
    ]},
    {"binder": "B5", "values": [
      {"measurement": "Kd", "setting": "[7]", "value": 293, "unit": "nM"}
    ]},
    {"binder": "B6", "values": [
      {"measurement": "binding result", "setting": "[8]", "value": "no binding"}
    ]},
    {"binder": "B7", "values": [
      {"measurement": "binding result", "setting": "[8]", "value": "no binding"}
    ]},
    {"binder": "B8", "values": [
      {"measurement": "binding result", "setting": "[9]", "value": "binds"}
    ]},
    {"binder": "B9", "values": [
      {"measurement": "binding result", "setting": "[9]", "value": "binds"}
    ]}
  ]
}
